For one data set, the system named is FKBP1A polynucleotide. As to the kind of experiment: Base editing of FKBP1A in primary human T cells, next-generation sequencing. In kind it is cell-based. To be noted: ABE8.20m mRNA and sgRNA electroporated into activated primary human T cells; NGS. An excerpt: FIG. 3 provides a bar graph showing maximum A to G and C to T base editing within an FKBP1A polynucleotide achieved using base editor systems containing one of the guide polynucleotides indicated along the x-axis (see Table 1 for nucleotide sequences) and either an adenosine deaminase base editor (ABE) or a cytidine deaminase base editor (CBE), as indicated. The ABE was ABE8.20m and the CBE was rBE4. Primary human T cells were thawed and activated in vitro using an anti-CD3/CD28/CD2 reagent. On day 2 following contacting with the reagent, the T cells were washed and resuspended in P3 Buffer (Lonza) and plated in 96-well electroporation plates containing 2 μg ABE8.20m or rBE4 (CBE) and 2 μg of the indicated guide polynucleotide targeting the FKBP1A (FKBP prolyl isomerase 1A) polynucleotide. Plates were electroporated using a DH-102 setting on a Lonza Nucleofector™ 96-well plate unit. The electroporated cells were incubated for 3 days. […]
Healthy donor adult human leukopaks were commercially obtained from HemaCare (Charles River). […] Two-days post-activation, T cells were counted, washed with sterile PBS (Gibco) and resuspended in P3 buffer (Lonza) at 10^7 cells mL^−1. […]

A further data set relates to FKBP1A protein. As to the kind of experiment: Western blot of FKBP1A protein in edited T cells. In kind it is cell-based, human. To be noted: T cells edited with ABE8.20m and TSBT×1538 sgRNA. Here is the method:
Primary human T cells were activated with anti-CD3/CD28/CD2 reagent. On day 2 following contacting with the reagent, the T cells were contacted with the TSBT×1538 sgRNA and ABE8.20m and subsequently incubated for approximately 5 days. Unedited cells were used as a negative control. Following the approximately 5-day incubation, the cells were harvested and cell-associated protein was extracted to be evaluated in the Western blot analysis. Protein samples from the edited and unedited cells were contacted with a rabbit anti-FKBP1A or mouse anti-GAPDH (control used to normalize protein concentrations) antibodies, followed by staining with secondary anti-rabbit (HRP) and anti-mouse (NIR) antibodies, respectively. Protein was analyzed using the Jess automated Western blot analysis device available from ProteinSimple.

The next data set relates to 19CAR-T cells. Description: CAR-T cell proliferation assay. To be noted: 100 nM rapamycin. Format: cell-based, human. The source says: Primary human T cells were activated using an anti-CD3/CD28/CD2 reagent. Two-days after being contacted with the reagent, the T cells were edited using a base editor system containing the guide polynucleotide TSBT×1538 and the base editor ABE8.20m using electroporation, as described above. Following electroporation, both the T cells were transduced with a lentiviral vector encoding an anti-CD19 CAR (19CAR) and allowed to expand in culture for approximately 7 days before being cryopreserved for later analysis. Unedited anti-CD19 CAR-T cells were prepared as a negative control. The 19CAR-T cells were then thawed from cryopreservation and rested overnight before being stimulated using dynabeads coated with recombinant human CD19 protein-coated at a bead-to-cell ratio of 1:1. The T cells were cultured in the presence of 100 nM of the immunosuppressant rapamycin or dimethylsulfoxide (DMSO) as a control for 6 days. The total number of T cells were enumerated using a NucleoCounter NC-200™ automated cell counter.
Primary human T cells were activated using an anti-CD3/CD28/CD2 reagent. Two days after being contacted with the reagent, the T cells were edited using a base editor system containing the guide polynucleotide TSBT×1538 and the base editor ABE8.20m using the electroporation protocol described above. Both edited and unedited T cells were transduced with a lentiviral vector encoding an anti-CD19 CAR (19CAR) and allowed to expand in culture for approximately 7 days before being cryopreserved for later analysis. Unedited 19CAR-T cells were used as a control. For analysis, the 19CAR-T cells were thawed and rested for 72 hours before labeling using a CellTrace™ Far Red (CTFR) dye. After CTFR labeling, the 19CAR-T cells were stimulated using an Immunocult™ Human CD3/CD28/CD2 universal T cell activator in the presence of 100 nM of the immunosuppressant agent rapamycin or in the presence of DMSO (control) and allowed to incubate for an additional 3 days. Following the three-day incubation, the T cells were analyzed using flow cytometry to measure dilution of CTFR dye as an indicator of cell proliferation.
The following day, T cells were washed, counted and 1×10^4 cells were seeded in triplicate into a 96-well flat bottom plate alone or with 1×10^4 JeKo-1.GFP^+ tumor cells. […] On day 7, samples were analyzed by flow cytometry and 19CAR-T cells were enumerated using CountBright Counting Beads (Thermo Fisher Scientific) following the manufacturer's protocol.

“Also recorded” adds a separate entry of the source.

B1: TSBT×1538: guide polynucleotide targeting FKBP1A, SEQ ID NO: 501 (nucleic acid)
guide: CTCACCGTCTCCTGGGGAGAGTTTTAGAGCTAGAAATAGCAAGTTAAAATAAGGCTAGTCCGTTATCAACTTGAAAAAGTGGCACCGAGTCGGTGCTTTT
modifications: chemistry not given here
For the molecule B1, the “mean on-target genomic editing efficiency” value in the data set with FKBP1A polynucleotide is listed as 93.7%. The FKBP1A protein expression entry in the data set with FKBP1A protein was “knock-out of FKBP1A protein expression; also recorded: reduced protein expression”. Besides, in the data set on 19CAR-T cells (19CAR-T cells edited with ABE8.20m and the guide, 3 days, CTFR dilution), the “cell proliferation in response to a universal T cell activator” value is “improved cell proliferation”. For the same molecule, the “proliferation in the presence of rapamycin” value with 19CAR-T cells (anti-CD19 CAR-T cells edited with ABE8.20m and the guide, CD19-coated dynabeads 1:1, 6 days) is on record as “improved proliferation”.

For the origin of these results see patent publication US20260183393A1, “IMMUNOSUPPRESSANT-RESISTANT MODIFIED ALLOGENEIC MODIFIED IMMUNE CELLS AND METHODS FOR USE THEREOF” (Beam Therapeutics Inc., priority 2023, published 2026).
